From PMC2711901 (Nature structural & molecular biology, 2009) come the findings set out here.

This experiment concerns the target T1, GST-Ubc9 (S. pombe, UniProt P40984 1-157).
T1 sequence (looked up): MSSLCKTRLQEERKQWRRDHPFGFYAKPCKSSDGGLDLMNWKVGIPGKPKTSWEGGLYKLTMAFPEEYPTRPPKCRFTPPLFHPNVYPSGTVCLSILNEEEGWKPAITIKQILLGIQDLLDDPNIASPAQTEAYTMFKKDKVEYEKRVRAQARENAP
Kind of experiment: pull-down.

B1: 6His-Rad60 SLD2 (domain or fragment, S. pombe, UniProt Q9USX3 332-406, looked up)
chain: KLITLLLRSSKSEDLRLSIPVDFTVKDLIKRYCTEVKISFHERIRLEFEGEWLDPNDQVQSTELEDEDQVSVVLD
For the molecule B1, the binding result is “binds”.
